Measured values published in PMC3597819 (The Journal of Biological Chemistry, 2013).

Target: the molecule itself
Test: crystal structure

B1: KLHL11 BTB-BACK domains (residues 67-340) (domain or fragment, human, UniProt Q9NVR0 67-340, looked up)
chain: EAEDFECSSHCSELSWRQNEQRRQGLFCDITLCFGGAGGREFRAHRSVLAAATEYFTPLLSGQFSESRSGRVEMRKWSSEPGPEPDTVEAVIEYMYTGRIRVSTGSVHEVLELADRFLLIRLKEFCGEFLKKKLHLSNCVAIHSLAHMYTLSQLALKAADMIRRNFHKVIQDEEFYTLPFHLIRDWLSDLEITVDSEEVLFETVLKWVQRNAEERERYFEELFKLLRLSQMKPTYLTRHVKPERLVANNEVCVKLVADAVERHALRAENIQSGT
With B1 the “stoichiometry N” value was 2.
